T1: VEGF-A truncated nascent chain (amino-terminal 52 amino acid residues of human VEGF-A plus six histidine … (human))
T1 construct: Translated in vitro in wheat germ lysate without stop codon; also called short VEGF-A nascent chains; bait polypeptide
T1 chain: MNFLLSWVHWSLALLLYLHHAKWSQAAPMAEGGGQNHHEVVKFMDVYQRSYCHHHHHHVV

T2: VEGF-A truncated nascent chain (52 amino-terminal residues of VEGF-A plus His6 and two valines) translated in … (human, ε-labelled biotinylated lysine incorporated from Transcend tRNA (positions not stated))
T2 construct: in one setting the ribosomes were dissociated with RNAse ONE before elution; also called VEGF-A nascent chains; VEGF-A-translating ribosomes
T2 chain: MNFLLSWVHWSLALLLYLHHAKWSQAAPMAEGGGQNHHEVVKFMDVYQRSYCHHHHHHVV

B1: LGALSHT (SEQ ID NO:14), displayed on M13 phage (peptide)
chain: CLGALSHTC
modifications: disulfide 1-9; not fully specified
notes: From the Ph.D.-C7C library; on phage; not shown: M13 pIII minor coat protein, peptide at its amino-terminus
B2: SVSGSPS (SEQ ID NO:6), displayed on M13 phage (peptide)
chain: CSVSGSPSC
modifications: disulfide 1-9; also: displayed on M13 phage, fused to pIII
notes: as for B1
B3: HPSSTHQ (SEQ ID NO:8), displayed on M13 phage (peptide)
chain: CHPSSTHQC
modifications: disulfide 1-9; not fully specified
notes: as for B1
B4: TASSVKL (SEQ ID NO:5), displayed on M13 phage (peptide)
chain: CTASSVKLC
modifications: disulfide 1-9; also: displayed on M13 phage, fused to pIII
notes: as for B1
B5: NLSSSWI (SEQ ID NO:9), displayed on M13 phage (peptide)
chain: CNLSSSWIC
modifications: disulfide 1-9
notes: as for B1
B6: SPRPSLS (SEQ ID NO:15), displayed on M13 phage (peptide)
chain: CSPRPSLSC
modifications: disulfide 1-9
notes: as for B1
B7: LTRPSPS (SEQ ID NO:10), displayed on M13 phage (peptide)
chain: CLTRPSPSC
modifications: disulfide 1-9; not fully specified
notes: as for B1
B8: PVAPSTH (SEQ ID NO:13), displayed on M13 phage (peptide)
chain: CPVAPSTHC
modifications: disulfide 1-9
notes: as for B1
B9: NPISLHL (SEQ ID NO:4), displayed on M13 phage (peptide)
chain: CNPISLHLC
modifications: disulfide 1-9
notes: as for B1
B10: FLFRLF (SEQ ID NO:2), displayed on M13 phage (peptide)
chain: CFLFRLFC
modifications: disulfide 1-8; not fully specified
notes: From the Ph.D.-C7C library; on phage; A hexapeptide; not shown: M13 pIII minor coat protein, peptide at its amino-terminus
B11: SPSLLPA (SEQ ID NO:11), displayed on M13 phage (peptide)
chain: CSPSLLPAC
modifications: disulfide 1-9
notes: as for B1
B12: PMTSPPS (SEQ ID NO:3), displayed on M13 phage (peptide)
chain: CPMTSPPSC
modifications: disulfide 1-9
notes: as for B1
B13: SGSSPWH (SEQ ID NO:7), displayed on M13 phage (peptide)
chain: CSGSSPWHC
modifications: disulfide 1-9
notes: as for B1
B14: SSPLLGR (SEQ ID NO:12), displayed on M13 phage (peptide)
chain: CSSPLLGRC
modifications: disulfide 1-9
notes: as for B1
B15: LPVSSSS (SEQ ID NO: 24), displayed on M13 phage (peptide)
chain: CLPVSSSSC
modifications: disulfide 1-9; not fully specified
notes: as for B1
B16: SYPLRPP (SEQ ID NO: 23), displayed on M13 phage (peptide)
chain: CSYPLRPPC
modifications: disulfide 1-9; also: displayed on M13 phage, fused to pIII
notes: as for B1
B17: LPRPLHS (SEQ ID NO: 42), displayed on M13 phage (peptide)
chain: CLPRPLHSC
modifications: disulfide 1-9; not fully specified
notes: as for B1
B18: EPASSRH (SEQ ID NO: 37), displayed on M13 phage (peptide)
chain: CEPASSRHC
modifications: disulfide 1-9; not fully specified
notes: as for B1
B19: PLHPPQP (SEQ ID NO: 41), displayed on M13 phage (peptide)
chain: CPLHPPQPC
modifications: disulfide 1-9
notes: as for B1
B20: SPHLIPS (SEQ ID NO: 27), displayed on M13 phage (peptide)
chain: CSPHLIPSC
modifications: disulfide 1-9
notes: as for B1
B21: LALSAAR (SEQ ID NO: 25), displayed on M13 phage (peptide)
chain: CLALSAARC
modifications: disulfide 1-9; not fully specified
notes: as for B1
B22: EIRTPSV (SEQ ID NO: 21), displayed on M13 phage (peptide)
chain: CEIRTPSVC
modifications: disulfide 1-9; not fully specified
notes: as for B1
B23: DYPWPLP (SEQ ID NO: 40), displayed on M13 phage (peptide)
chain: CDYPWPLPC
modifications: disulfide 1-9; not fully specified
notes: as for B1
B24: PSLFPSM (SEQ ID NO: 44), displayed on M13 phage (peptide)
chain: CPSLFPSMC
modifications: disulfide 1-9
notes: as for B1
B25: LTLPNRT (SEQ ID NO: 17), displayed on M13 phage (peptide)
chain: CLTLPNRTC
modifications: disulfide 1-9; not fully specified
notes: as for B1
B26: HALPAPD (SEQ ID NO: 49), displayed on M13 phage (peptide)
chain: CHALPAPDC
modifications: disulfide 1-9; not fully specified
notes: as for B1
B27: SLNSDLF (SEQ ID NO: 26), displayed on M13 phage (peptide)
chain: CSLNSDLFC
modifications: disulfide 1-9
notes: as for B1
B28: HAWTFNS (SEQ ID NO: 22), displayed on M13 phage (peptide)
chain: CHAWTFNSC
modifications: disulfide 1-9; not fully specified
notes: as for B1
B29: TLSHTRT (SEQ ID NO: 35), displayed on M13 phage (peptide)
chain: CTLSHTRTC
modifications: disulfide 1-9; also: displayed on M13 phage, fused to pIII
notes: as for B1
B30: SSTLHPS (SEQ ID NO: 31), displayed on M13 phage (peptide)
chain: CSSTLHPSC
modifications: disulfide 1-9; also: displayed on M13 phage, fused to pIII
notes: as for B1
B31: WASQAHP (SEQ ID NO: 30), displayed on M13 phage (peptide)
chain: CWASQAHPC
modifications: disulfide 1-9; also: displayed on M13 phage, fused to pIII
notes: as for B1
B32: PSALAFY (SEQ ID NO: 47), displayed on M13 phage (peptide)
chain: CPSALAFYC
modifications: disulfide 1-9
notes: as for B1
B33: HALSSRT (SEQ ID NO: 32), displayed on M13 phage (peptide)
chain: CHALSSRTC
modifications: disulfide 1-9; not fully specified
notes: as for B1
B34: PANFGPS (SEQ ID NO: 16), displayed on M13 phage (peptide)
chain: CPANFGPSC
modifications: disulfide 1-9
notes: as for B1
B35: PPPFLPL (SEQ ID NO: 20), displayed on M13 phage (peptide)
chain: CPPPFLPLC
modifications: disulfide 1-9
notes: as for B1
B36: HPMFWPI (SEQ ID NO: 29), displayed on M13 phage (peptide)
chain: CHPMFWPIC
modifications: disulfide 1-9; not fully specified
notes: as for B1
B37: HPMFPLS (SEQ ID NO: 28), displayed on M13 phage (peptide)
chain: CHPMFPLSC
modifications: disulfide 1-9; not fully specified
notes: as for B1
B38: AFPGMKA (SEQ ID NO: 18), displayed on M13 phage (peptide)
chain: CAFPGMKAC
modifications: disulfide 1-9; not fully specified
notes: as for B1
B39: SRSALES (SEQ ID NO: 46), displayed on M13 phage (peptide)
chain: CSRSALESC
modifications: disulfide 1-9
notes: as for B1
B40: FPATAAS (SEQ ID NO: 36), displayed on M13 phage (peptide)
chain: CFPATAASC
modifications: disulfide 1-9; not fully specified
notes: as for B1
B41: VSGSSPQ (SEQ ID NO: 43), displayed on M13 phage (peptide)
chain: CVSGSSPQC
modifications: disulfide 1-9; also: displayed on M13 phage, fused to pIII
notes: as for B1
B42: LPPLQRL (SEQ ID NO: 19), displayed on M13 phage (peptide)
chain: CLPPLQRLC
modifications: disulfide 1-9; not fully specified
notes: as for B1
B43: SPSTSSR (SEQ ID NO: 34), displayed on M13 phage (peptide)
chain: CSPSTSSRC
modifications: disulfide 1-9
notes: as for B1
B44: EASSSRA (SEQ ID NO: 45), displayed on M13 phage (peptide)
chain: CEASSSRAC
modifications: disulfide 1-9; not fully specified
notes: as for B1
B45: PHTRGFM (SEQ ID NO: 33), displayed on M13 phage (peptide)
chain: CPHTRGFMC
modifications: disulfide 1-9
notes: as for B1
B46: NASRTTL (SEQ ID NO: 48), displayed on M13 phage (peptide)
chain: CNASRTTLC
modifications: disulfide 1-9; not fully specified
notes: as for B1
B47: PLHARLP (SEQ ID NO:1), displayed on M13 phage (peptide)
chain: CPLHARLPC
modifications: disulfide 1-9
notes: as for B1

The text below walks through data of patent EP2345737A1 (Harant, Hanna, dated 2011).

Bridges are numbered along the chain shown (N, C = ends). Where no end group is shown, it is not given here.

The target of the first assay is T1, VEGF-A truncated nascent chain …. Description: phage panning, released His-tagged nascent chain on Ni-NTA beads, DTT elution; selection only.
With B1, the binding result is “binds”.

For B2, the binding result is recorded as “binds”.

For B3, the binding result is recorded as “binds”.

B4: the binding result is reported as “binds”.

As for B5, the binding result is on record as “binds”.

Turning to B6, the binding result is recorded as “binds”.

As for B7, the binding result is listed as “binds”.

In the case of B8, the binding result is “binds”.

On to B9, for which the binding result is listed as “binds”.

On to B10, for which the binding result is listed as “binds”.

Regarding B11, the binding result is on record as “binds”.

On to B12, for which the binding result is reported as “binds”.

As to B13, the binding result is reported as “binds”.

Turning to B14, the binding result is given as “binds”.

For another assay, the target named is T2, VEGF-A truncated nascent chain (52 …). Description: phage panning, biotinylated ribosome-bound nascent chain in streptavidin wells; selection only.
Regarding B15, the binding result is on record as “binds”.

Turning to B16, the binding result is given as “binds”.

With B17, the binding result is “binds”.

On to B18, for which the binding result is on record as “binds”.

On to B19, for which the binding result is reported as “binds”.

Take B20: the binding result is given as “binds”.

Take B21: the binding result is on record as “binds”.

Take B22: the binding result is on record as “binds”.

With B23, the binding result was “binds”.

On to B24, for which the binding result was “binds”.

Turning to B25, the binding result is given as “binds”.

For B26, the binding result is “binds”.

Take B27: the binding result is on record as “binds”.

Turning to B28, the binding result is “binds”.

Regarding B29, the binding result is on record as “binds”.

In the case of B30, the binding result is listed as “binds”.

As to B31, the binding result is on record as “binds”.

As to B32, the binding result is “binds”.

For B33, the binding result is “binds”.

For B34, the binding result is given as “binds”.

Take B35: the binding result was “binds”.

For the molecule B36, the binding result is recorded as “binds”.

In the case of B37, the binding result is “binds”.

For the molecule B38, the binding result is listed as “binds”.

Turning to B39, the binding result is given as “binds”.

With B40, the binding result is “binds”.

With B41, the binding result is given as “binds”.

B42: the binding result is listed as “binds”.

B43: the binding result was “binds”.

As to B44, the binding result is “binds”.

B45: the binding result is “binds”.

Turning to B46, the binding result was “binds”.

The next assay has as its target T1, VEGF-A truncated nascent chain …. Description: phage panning by co-sedimentation with ribosome-bound nascent chain, with subtraction on non-translating ribosomes; selection only.
Consider B47, for which the binding result is given as “binds”.
